From PMC11437284
Positions count from the first letter of the chain named. Numbers in names are those of the source.

Assays:
Test in all cases: SPR
[1] = target: D1 domain of FcμR (FcμR-D1) (human) (UniProt O60667)
[2] = target: cat Fcμ–J complex (cat)
[3] = target: human Fcμ–J complex (pentameric IgM core: IgM-Fc pentamer and the J chain) (human) (UniProt P01871)
[4] = target: human Fcμ–J–CD5L complex (human) (UniProt P01871)

Molecule: human Fcμ–J–CD5L complex (from UniProt P01871 106-433; P01591 23-159; O43866 20-347)
- Kd [1]: 0.0004 µM

Molecule: cat CD5L (3-SRCR isoform) (from UniProt A0A1E1GEY0 20-355) (natural protein)
- Kd [2]: 0.0144 µM

B1: human CD5L (CD5 antigen-like), wild type (natural protein)
chain: SPSGVRLVGGLHRCEGRVEVEQKGQWGTVCDDGWDIKDVAVLCRELGCGAASGTPSGILYEPPAEKEQKVLIQSVSCTGTEDTLAQCEQEEVYDCSHDEDAGASCENPESSFSPVPEGVRLADGPGHCKGRVEVKHQNQWYTVCQTGWSLRAAKVVCRQLGCGRAVLTQKRCNKHAYGRKPIWLSQMSCSGREATLQDCPSGPWGKNTCNHDEDTWVECEDPFDLRLVGGDNLCSGRLEVLHKGVWGSVCDDNWGEKEDQVVCKQLGCGKSLSPSFRDRKCYGPGVGRIWLDNVRCSGEEQSLEQCQHRFWGFHDCTHQEDVAVICSG
- Kd [3]: 0.0181 µM

B2: human CD5L C191S (natural protein)
chain: B1 chain with C172S
- Kd [3]: 0.0132 µM

B3: D1 domain of FcμR (FcμR-D1) (domain or fragment)
chain: RILPEVKVEGELGGSVTIKCPLPEMHVRIYLCREMAGSGTCGTVVSTTNFIKAEYKGRVTLKQYPRKNLFLVEVTQLTESDSGVYACGAGMNTDRGKTQKVTLNVHS
- Kd [4]: 0.0088 µM
